Consider five variants from IntAct's records for PubMed 31515488.

The chains are these.
B1: Gem-associated protein 6 (Homo sapiens), Q8WXD5 (parent)
chain: MSEWMKKGPLEWQDYIYKEVRVTASEKNEYKGWVLTTDPVSANIVLVNFLEDGSMSVTGIMGHAVQTVETMNEGDHRVREKLMHLFTSGDCKAYSPEDLEERKNSLKKWLEKNHIPITEQGDAPRTLCVAGVLTIDPPYGPENCSSSNEIILSRVQDLIEGHLTASQ
B2: Mothers against decapentaplegic homolog 3 (Homo sapiens), P84022 (parent)
chain: MSSILPFTPPIVKRLLGWKKGEQNGQEEKWCEKAVKSLVKKLKKTGQLDELEKAITTQNVNTKCITIPRSLDGRLQVSHRKGLPHVIYCRLWRWPDLHSHHELRAMELCEFAFNMKKDEVCVNPYHYQRVETPVLPPVLVPRHTEIPAEFPPLDDYSHSIPENTNFPAGIEPQSNIPETPPPGYLSEDGETSDHQMNHSMDAGSPNLSPNPMSPAHNNLDLQPVTYCEPAFWCSISYYELNQRVGETFHASQPSMTVDGFTDPSNSERFCLGLLSNVNRNAAVELTRRHIGRGVRLYYIGGEVFAECLSDSAIFVQSPNCNQRYGWHPATVCKIPPGCNLKIFNNQEFAALLAQSVNQGFEAVYQLTRMCTIRMSFVKGWGAEYRRQTVTSTPCWIELHLNGPLQWLDKVLTQMGSPSIRCSSVS
B3: Protein-associating with the carboxyl-terminal domain of ezrin (Homo sapiens), Q8IZE3 (parent)
chain: MGSENSALKSYTLREPPFTLPSGLAVYPAVLQDGKFASVFVYKRENEDKVNKAAKHLKTLRHPCLLRFLSCTVEADGIHLVTERVQPLEVALETLSSAEVCAGIYDILLALIFLHDRGHLTHNNVCLSSVFVSEDGHWKLGGMETVCKVSQATPEFLRSIQSIRDPASIPPEEMSPEFTTLPECHGHARDAFSFGTLVESLLTILNEQVSADVLSSFQQTLHSTLLNPIPKCRPALCTLLSHDFFRNDFLEVVNFLKSLTLKSEEEKTEFFKFLLDRVSCLSEELIASRLVPLLLNQLVFAEPVAVKSFLPYLLGPKKDHAQGETPCLLSPALFQSRVIPVLLQLFEVHEEHVRMVLLSHIEAYVEHFTQEQLKKVILPQVLLGLRDTSDSIVAITLHSLAVLVSLLGPEVVVGGERTKIFKRTAPSFTKNTDLSLEDSPMCVVCSHHSQISPILENPFSSIFPKCFFSGSTPINSKKHIQRDYYNTLLQTGDPFSQPIKFPINGLSDVKNTSEDSENFPSSSKKSEEWPDWSEPEEPENQTVNIQIWPREPCDDVKSQCTTLDVEESSWDDCEPSSLDTKVNPGGGITATKPVTSGEQKPIPALLSLTEESMPWKSSLPQKISLVQRGDDADQIEPPKVSSQERPLKVPSELGLGEEFTIQVKKKPVKDPEMDWFADMIPEIKPSAAFLILPELRTEMVPKKDDVSPVMQFSSKFAAAEITEGEAEGWEEEGELNWEDNNW
partner: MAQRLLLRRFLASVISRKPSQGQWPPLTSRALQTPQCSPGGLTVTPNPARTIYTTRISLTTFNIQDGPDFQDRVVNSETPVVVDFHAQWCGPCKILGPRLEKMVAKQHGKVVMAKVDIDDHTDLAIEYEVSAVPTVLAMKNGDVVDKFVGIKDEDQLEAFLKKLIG

Variants of B1 are the subject of the first assay. The conditions noted are these: with gemi7_human GEMIN7, Q9H840.
Chain of gemi7_human GEMIN7, Q9H840 (Q9H840 whole entry): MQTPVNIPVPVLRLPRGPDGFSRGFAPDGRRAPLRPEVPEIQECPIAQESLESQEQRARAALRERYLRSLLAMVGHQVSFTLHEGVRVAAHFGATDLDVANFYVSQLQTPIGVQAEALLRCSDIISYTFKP
Turning to V57L, the “effect of a mutation on the interaction” value was “with no effect”.

Variants of B2 are the subject of another assay. As to conditions: with smad4_human SMAD4, Q13485.
Chain of smad4_human SMAD4, Q13485 (Q13485 whole entry): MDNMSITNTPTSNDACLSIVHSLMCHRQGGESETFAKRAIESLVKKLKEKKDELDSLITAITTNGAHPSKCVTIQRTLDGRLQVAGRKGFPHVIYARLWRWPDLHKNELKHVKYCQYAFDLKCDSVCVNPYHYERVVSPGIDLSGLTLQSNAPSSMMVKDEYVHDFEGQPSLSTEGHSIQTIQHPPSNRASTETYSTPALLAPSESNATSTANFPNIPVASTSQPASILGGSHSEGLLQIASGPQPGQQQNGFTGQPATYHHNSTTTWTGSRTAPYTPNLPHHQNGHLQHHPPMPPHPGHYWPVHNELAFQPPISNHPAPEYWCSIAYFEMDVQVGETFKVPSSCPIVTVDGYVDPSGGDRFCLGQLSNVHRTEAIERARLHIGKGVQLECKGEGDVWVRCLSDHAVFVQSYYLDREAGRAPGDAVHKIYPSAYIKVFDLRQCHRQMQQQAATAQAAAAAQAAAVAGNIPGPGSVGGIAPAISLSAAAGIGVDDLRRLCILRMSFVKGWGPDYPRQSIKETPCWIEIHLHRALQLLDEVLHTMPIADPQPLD
As to I170V, the “effect of a mutation on the interaction” value is recorded as “with no effect”.

The variants in the next assay derive from B2. As to conditions: with ccd33_human CCDC33, Q8N5R6.
Chain of ccd33_human CCDC33, Q8N5R6 (Q8N5R6 whole entry): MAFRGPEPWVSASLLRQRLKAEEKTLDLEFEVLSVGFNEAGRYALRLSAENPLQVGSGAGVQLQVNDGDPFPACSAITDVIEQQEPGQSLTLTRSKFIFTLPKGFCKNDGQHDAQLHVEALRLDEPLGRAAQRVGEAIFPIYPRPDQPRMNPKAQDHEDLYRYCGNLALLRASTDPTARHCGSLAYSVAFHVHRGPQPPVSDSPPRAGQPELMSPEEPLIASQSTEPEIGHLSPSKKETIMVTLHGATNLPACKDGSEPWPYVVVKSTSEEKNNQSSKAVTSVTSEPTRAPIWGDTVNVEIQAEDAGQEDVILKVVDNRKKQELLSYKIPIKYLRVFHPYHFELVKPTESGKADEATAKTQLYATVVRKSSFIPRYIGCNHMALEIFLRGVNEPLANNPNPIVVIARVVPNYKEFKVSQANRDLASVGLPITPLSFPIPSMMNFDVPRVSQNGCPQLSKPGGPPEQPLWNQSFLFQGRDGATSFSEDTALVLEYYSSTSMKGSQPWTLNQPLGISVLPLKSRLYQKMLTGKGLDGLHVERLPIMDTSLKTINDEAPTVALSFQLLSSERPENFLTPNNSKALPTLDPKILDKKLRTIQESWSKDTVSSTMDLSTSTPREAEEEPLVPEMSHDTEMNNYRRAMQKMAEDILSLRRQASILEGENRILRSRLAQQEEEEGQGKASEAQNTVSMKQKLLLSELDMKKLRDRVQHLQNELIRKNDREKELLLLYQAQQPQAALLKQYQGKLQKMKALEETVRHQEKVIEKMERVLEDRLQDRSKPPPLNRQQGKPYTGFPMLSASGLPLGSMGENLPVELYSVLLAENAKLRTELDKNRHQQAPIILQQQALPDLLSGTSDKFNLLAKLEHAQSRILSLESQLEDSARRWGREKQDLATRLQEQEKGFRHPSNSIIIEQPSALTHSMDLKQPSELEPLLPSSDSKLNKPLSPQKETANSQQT
As to I170V, the “effect of a mutation on the interaction” value is reported as “with no effect”.

The variants in another assay derive from B2. The conditions noted are these: with smad4_human SMAD4, Q13485. This is another data set of the same source.
With P393L, the “effect of a mutation on the interaction” value is on record as “with no effect”.

In the next assay the parent is B3. The conditions noted are these: with thiom_human TXN2, Q99757.
Regarding Q621R, the “effect of a mutation on the interaction” value is listed as “with no effect”.

With L625F, the “effect of a mutation on the interaction” value was “with no effect”.
